Measured values published in patent US20140161800A1 (APTEVO RESEARCH AND DEVELOPMENT, published 2014).

B1: TSC085 chimeric SMIP (murine 107-1A4 VL-VH scFv-human Fc) (Fc fusion)
chain: DVQITQSPSYLAASPGETITINCRASKSISKYLAWYQEKPGKANKLLIHSGSTLQSGIPSRFSGSGSGTDFTLTISSLEPEDFAMYYCQQHIEYPWTFGGGTKLEIKRAGGGGSGGGGSSGGGGSEIQLQQSGPELVKPGASVKMSCKASGYTFTDYYMHWVKQNNGESLEWIGYFNPYNDYTRYNQNFNGKATLTVDKSSSTAYMQLNSLTSEDSAFYYCARSDGYYDAMDYWGQGTSVTVSSSEPKSSDKTHTCPPCPAPEAAGAPSVFLFPPKPKDTLMISRTPEVTCVVVDVSHEDPEVKFNWYVDGVEVHNAKTKPREEQYNSTYRVVSVLTVLHQDWLNGKAYACAVSNKALPAPIEKTISKAKGQPREPQVYTLPPSRDELTKNQVSLTCLVKGFYPSDIAVEWESNGQPENNYKTTPPVLDSDGSFFLYSKLTVDKSRWQQGNVFSCSVMHEALHNHYTQKSLSLSPGK
notes: scFv-hinge-Fc
B2: TSC188 humanized SMIP (107-1A4 VL-VH#1 scFv-Fc) (Fc fusion)
chain: DIQMTQSPSAMSASVGDRVTITCRASKSISKYLAWFQQKPGKVPKLRIHSGSTLQSGVPSRFSGSGSGTEFTLTISSLQPEDFATYYCQQHIEYPWTFGQGTKVEIKRGGGGSGGGGSGGGGSEVQLVQSGAEVKKPGATVKISCKASGYTFTDYYMHWVQQAPGKGLEWMGYFNPYNDYTRYAEKFQGRVTITADTSTDTAYMELSSLRSEDTAVYYCARSDGYYDAMDYWGQGTTVTVSSSEPKSSDKTHTCPPCPAPEAAGAPSVFLFPPKPKDTLMISRTPEVTCVVVDVSHEDPEVKFNWYVDGVEVHNAKTKPREEQYNSTYRVVSVLTVLHQDWLNGKAYACAVSNKALPAPIEKTISKAKGQPREPQVYTLPPSRDELTKNQVSLTCLVKGFYPSDIAVEWESNGQPENNYKTTPPVLDSDGSFFLYSKLTVDKSRWQQGNVFSCSVMHEALHNHYTQKSLSLSPGK
notes: scFv-hinge-Fc
B3: TSC189 humanized SMIP (107-1A4 VL-VH#2 scFv-Fc) (Fc fusion)
chain: DIQMTQSPSAMSASVGDRVTITCRASKSISKYLAWFQQKPGKVPKLRIHSGSTLQSGVPSRFSGSGSGTEFTLTISSLQPEDFATYYCQQHIEYPWTFGQGTKVEIKRGGGGSGGGGSGGGGSQVQLVQSGAEVKKPGASVKVSCKASGYTFTDYYMHWVRQAPGQGLEWMGYFNPYNDYTRYAQKFQGRVTMTRDTSISTAYMELSSLRSDDTAVYYCARSDGYYDAMDYWGQGTTVTVSSSEPKSSDKTHTCPPCPAPEAAGAPSVFLFPPKPKDTLMISRTPEVTCVVVDVSHEDPEVKFNWYVDGVEVHNAKTKPREEQYNSTYRVVSVLTVLHQDWLNGKAYACAVSNKALPAPIEKTISKAKGQPREPQVYTLPPSRDELTKNQVSLTCLVKGFYPSDIAVEWESNGQPENNYKTTPPVLDSDGSFFLYSKLTVDKSRWQQGNVFSCSVMHEALHNHYTQKSLSLSPGK
notes: scFv-hinge-Fc
B4: TSC194 Scorpion (huVL-VH#2 107-1A4 scFv-Fc-Cris7 scFv) (bispecific antibody)
chain: DIQMTQSPSAMSASVGDRVTITCRASKSISKYLAWFQQKPGKVPKLRIHSGSTLQSGVPSRFSGSGSGTEFTLTISSLQPEDFATYYCQQHIEYPWTFGQGTKVEIKRGGGGSGGGGSGGGGSQVQLVQSGAEVKKPGASVKVSCKASGYTFTDYYMHWVRQAPGQGLEWMGYFNPYNDYTRYAQKFQGRVTMTRDTSISTAYMELSSLRSDDTAVYYCARSDGYYDAMDYWGQGTTVTVSSSEPKSSDKTHTCPPCPAPEAAGAPSVFLFPPKPKDTLMISRTPEVTCVVVDVSHEDPEVKFNWYVDGVEVHNAKTKPREEQYNSTYRVVSVLTVLHQDWLNGKAYACAVSNKALPAPIEKTISKAKGQPREPQVYTLPPSRDELTKNQVSLTCLVKGFYPSDIAVEWESNGQPENNYKTTPPVLDSDGSFFLYSKLTVDKSRWQQGNVFSCSVMHEALHNHYTQKSLSLSPGQRHNNSSLNTGTQMAGHSPNSQVQLVQSGGGVVQPGRSLRLSCKASGYTFTRSTMHWVRQAPGKGLEWIGYINPSSAYTNYNQKFKDRFTISADKSKSTAFLQMDSLRPEDTGVYFCARPQVHYDYNGFPYWGQGTPVTVSSGGGGSGGGGSGGGGSAQDIQMTQSPSSLSASVGDRVTMTCSASSSVSYMNWYQQKPGKAPKRWIYDSSKLASGVPARFSGSGSGTDYTLTISSLQPEDFATYYCQQWSRNPPTFGGGTKLQITR
notes: also called humanized SCORPION molecule
B5: TSC199 Scorpion (huVL-VH#1 107-1A4 scFv-Fc-Cris7 scFv) (bispecific antibody)
chain: DIQMTQSPSAMSASVGDRVTITCRASKSISKYLAWFQQKPGKVPKLRIHSGSTLQSGVPSRFSGSGSGTEFTLTISSLQPEDFATYYCQQHIEYPWTFGQGTKVEIKRGGGGSGGGGSGGGGSEVQLVQSGAEVKKPGATVKISCKASGYTFTDYYMHWVQQAPGKGLEWMGYFNPYNDYTRYAEKFQGRVTITADTSTDTAYMELSSLRSEDTAVYYCARSDGYYDAMDYWGQGTTVTVSSSEPKSSDKTHTCPPCPAPEAAGAPSVFLFPPKPKDTLMISRTPEVTCVVVDVSHEDPEVKFNWYVDGVEVHNAKTKPREEQYNSTYRVVSVLTVLHQDWLNGKAYACAVSNKALPAPIEKTISKAKGQPREPQVYTLPPSRDELTKNQVSLTCLVKGFYPSDIAVEWESNGQPENNYKTTPPVLDSDGSFFLYSKLTVDKSRWQQGNVFSCSVMHEALHNHYTQKSLSLSPGQRHNNSSLNTGTQMAGHSPNSQVQLVQSGGGVVQPGRSLRLSCKASGYTFTRSTMHWVRQAPGKGLEWIGYINPSSAYTNYNQKFKDRFTISADKSKSTAFLQMDSLRPEDTGVYFCARPQVHYDYNGFPYWGQGTPVTVSSGGGGSGGGGSGGGGSAQDIQMTQSPSSLSASVGDRVTMTCSASSSVSYMNWYQQKPGKAPKRWIYDSSKLASGVPARFSGSGSGTDYTLTISSLQPEDFATYYCQQWSRNPPTFGGGTKLQITR
notes: as for B4
B6: TSC092 chimeric SMIP (murine 107-1A4 VH-VL scFv-human Fc) (Fc fusion)
chain: EIQLQQSGPELVKPGASVKMSCKASGYTFTDYYMHWVKQNNGESLEWIGYFNPYNDYTRYNQNFNGKATLTVDKSSSTAYMQLNSLTSEDSAFYYCARSDGYYDAMDYWGQGTSVTVSSGGGGSGGGGSSGGGGSDVQITQSPSYLAASPGETITINCRASKSISKYLAWYQEKPGKANKLLIHSGSTLQSGIPSRFSGSGSGTDFTLTISSLEPEDFAMYYCQQHIEYPWTFGGGTKLEIKRASSEPKSSDKTHTCPPCPAPEAAGAPSVFLFPPKPKDTLMISRTPEVTCVVVDVSHEDPEVKFNWYVDGVEVHNAKTKPREEQYNSTYRVVSVLTVLHQDWLNGKAYACAVSNKALPAPIEKTISKAKGQPREPQVYTLPPSRDELTKNQVSLTCLVKGFYPSDIAVEWESNGQPENNYKTTPPVLDSDGSFFLYSKLTVDKSRWQQGNVFSCSVMHEALHNHYTQKSLSLSPGK
notes: scFv-hinge-Fc

Key:
[1] = biological target: T1, prostate-specific membrane antigen (PSMA) (human, UniProt Q04609 1-750); assay: flow cytometry on PSMA+ prostate cancer cells (FIG. 1)
T1 construct: whole, on cells; also called glutamate carboxypeptidase II; N-acetylated alpha-linked acidic dipeptidase 1
T1 sequence (Q04609 whole entry): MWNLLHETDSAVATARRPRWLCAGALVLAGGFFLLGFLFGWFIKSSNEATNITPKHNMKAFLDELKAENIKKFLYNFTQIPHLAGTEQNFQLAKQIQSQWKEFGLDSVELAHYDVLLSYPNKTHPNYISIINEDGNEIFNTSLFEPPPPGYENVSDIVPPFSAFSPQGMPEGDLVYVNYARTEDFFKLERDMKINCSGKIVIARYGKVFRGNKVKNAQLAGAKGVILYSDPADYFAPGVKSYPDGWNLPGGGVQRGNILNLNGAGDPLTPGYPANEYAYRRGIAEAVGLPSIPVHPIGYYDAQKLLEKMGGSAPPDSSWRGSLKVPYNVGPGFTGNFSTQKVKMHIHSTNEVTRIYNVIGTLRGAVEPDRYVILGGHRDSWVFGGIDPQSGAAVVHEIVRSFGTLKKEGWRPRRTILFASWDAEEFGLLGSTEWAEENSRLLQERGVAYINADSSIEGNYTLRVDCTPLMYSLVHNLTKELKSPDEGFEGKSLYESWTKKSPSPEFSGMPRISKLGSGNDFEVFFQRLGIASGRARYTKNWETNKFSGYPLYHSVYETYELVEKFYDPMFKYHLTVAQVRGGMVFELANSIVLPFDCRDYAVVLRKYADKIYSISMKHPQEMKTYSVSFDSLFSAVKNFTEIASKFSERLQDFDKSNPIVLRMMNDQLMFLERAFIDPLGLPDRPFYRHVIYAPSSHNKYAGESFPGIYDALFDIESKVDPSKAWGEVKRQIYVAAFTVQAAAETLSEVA

[2] = biological target: T1, prostate-specific membrane antigen …; assay: flow cytometry on PSMA+ C4-2 cells (FIG. 2A)
Protocol: (§1) A typical experiment would label 300,000 cells per well with a range of 200 nM to 0.1 nM binding molecule in 100 ul of FACS buffer (PBS+2% normal goat serum+2% fetal bovine serum+0.1% sodium azide) on ice, followed by washes and incubation with fluorescently-labeled secondary antibody, goat anti-human IgG (1:400 dilution of Invitrogen #11013=5 ug/ml). After washing secondary antibody off cells, cells were incubated with 7-Aminoactinomycin D (7-AAD) staining solution (BD Pharmingen™ cat#559925) (6 ul of 7AAD to 100 ul of FACS Buffer) for 20 minutes. Signal from bound molecules was detected using a FACSCalibur™ flow cytometer (BD Biosciences) and analyzed by FlowJo flow cytometry analysis software. 7-AAD+ cells were excluded from analysis. Nonlinear regression analysis to determine EC50s was performed in GraphPad Prism® graphing and statistics software.

[3] = biological target: T1, prostate-specific membrane antigen …; assay: flow cytometry on PSMA+ C4-2 cells (FIG. 2B)
Protocol: as §1

| Binder | binding result [1] | binding result [2] | binding result [3] |
| --- | --- | --- | --- |
| B1 | binds |  |  |
| B2 |  | binds |  |
| B3 |  | binds |  |
| B4 |  |  | binds |
| B5 |  |  | binds |
| B6 | binds |  |  |
